Test results published in US20230047413A1.

Molecular target: tau seeds from spinal cords of P301S transgenic animals (human), P10636
Experiment: cell-based or functional assay

tau seeds from spinal cords of P301S transgenic animals (human), P10636, sequence (P10636 other isoform, or with tags, fused parts or gaps P301S P301S): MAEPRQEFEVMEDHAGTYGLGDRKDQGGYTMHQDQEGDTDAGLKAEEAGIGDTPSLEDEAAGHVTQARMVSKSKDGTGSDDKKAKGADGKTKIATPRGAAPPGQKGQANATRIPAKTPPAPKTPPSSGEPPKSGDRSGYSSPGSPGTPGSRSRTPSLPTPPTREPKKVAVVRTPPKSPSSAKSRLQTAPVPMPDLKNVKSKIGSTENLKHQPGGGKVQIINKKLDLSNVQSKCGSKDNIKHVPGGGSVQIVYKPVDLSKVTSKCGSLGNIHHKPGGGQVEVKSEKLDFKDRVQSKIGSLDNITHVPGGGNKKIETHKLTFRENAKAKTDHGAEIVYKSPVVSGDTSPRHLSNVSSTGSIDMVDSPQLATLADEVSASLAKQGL

FRET/P301S spinal cord immunodepletion assay, 300 nM antibody (% of negative control): 96.2
blocking of aggregate induction (FRET assay) at 3 nM: 30.7%
blocking of aggregate induction (FRET assay) at 30 nM: 37%
inhibition of K18 aggregate induction, FRET/P301S spinal cord co-incubation assay, 300 nM antibody (% of negative control): 34
B1: PT3 (mouse-hybridoma-derived antibody) (antibody, V domains shown)
VH: EVKLVESGGDLVKPGGSLKLSCAASGFTFSSYAMSWVRQNPEKRLEWVASISKGGNTYYPNSVKGRFTISRDNARNILYLQMSSLRSEDTALYYCARGWGDYGWFAYWGQVTLVTVSA
VL: DIKMTQSPSSMYASLGERVTITCKASQDINRYLNWFQQKPGKSPKTLIYRANRLLDGVPSRFSGSGSGQDYSLTISSLDYEDMGIYYCLQYDEFPLTFGDGTKLELK
modifications: here or on the partner: aggregated
